In PMC6756063, “TRiC/CCT chaperonins are essential for organ growth by interacting with insulin/TOR signaling in Drosophila” (Oncogene, 2019):

Target: T1, GST-CCT4 (Drosophila, UniProt Q9VK69 1-533)
T1 construct: CCT4, Drosophila; source: E. coli BL21 (IPTG-inducible), purified using a standard method
T1 sequence (looked up): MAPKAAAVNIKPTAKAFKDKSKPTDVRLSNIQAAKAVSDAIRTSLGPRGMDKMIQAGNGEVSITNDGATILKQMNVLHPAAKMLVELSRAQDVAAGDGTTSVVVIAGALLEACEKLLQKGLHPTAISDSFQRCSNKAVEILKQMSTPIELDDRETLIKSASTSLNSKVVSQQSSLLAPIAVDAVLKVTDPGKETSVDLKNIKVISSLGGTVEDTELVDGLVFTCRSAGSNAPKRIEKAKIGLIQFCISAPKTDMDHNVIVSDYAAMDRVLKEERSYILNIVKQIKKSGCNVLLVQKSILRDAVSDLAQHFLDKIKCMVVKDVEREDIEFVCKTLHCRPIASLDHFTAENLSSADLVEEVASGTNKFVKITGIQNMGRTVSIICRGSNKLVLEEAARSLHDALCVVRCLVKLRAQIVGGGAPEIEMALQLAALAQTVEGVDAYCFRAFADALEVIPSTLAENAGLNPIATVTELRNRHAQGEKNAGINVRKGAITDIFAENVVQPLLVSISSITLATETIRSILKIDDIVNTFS
Assay: pull-down; MBP-pulldown of MBP-tagged bait with GST-CCT4; pulldown buffer 20 mM Tris pH 7.5, 150 mM NaCl, 0.5 mM EDTA, 10% glycerol, 0.1% Triton X-100, 1 mM DTT; blots with anti-MBP and anti-GST
Details: both partners purified

binding result: binds
B1: MBP-Rheb (natural protein, Drosophila, UniProt Q9VND8 1-182, looked up)
chain: MPTKERHIAMMGYRSVGKSSLCIQFVEGQFVDSYDPTIENTFTKIERVKSQDYIVKLIDTAGQDEYSIFPVQYSMDYHGYVLVYSITSQKSFEVVKIIYEKLLDVMGKKYVPVVLVGNKIDLHQERTVSTEEGKKLAESWRAAFLETSAKQNESVGDIFHQLLILIENENGNPQEKSGCLVS
notes: also called full-length Rheb; source: E. coli BL21 (IPTG-inducible), purified using a standard method
